Measurements: the NTF2 design screens of Basanta et al. (2020)

Assay: protease stability score; higher = more stable; yeast display proteolysis, trypsin and chymotrypsin;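 also: relative to predicted unfolded state with 0 unfolded-like and 1 meaning tenfold more protease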

**Q.** Which protease stability score does the source give for “DHKEARDVAQTMMHLLKHGDFEQIVRNADPNAHFVVGDKEYHGRDNLRKVLKRLHDQVDHISFRTYKVDEDTAKLDATVQINGRNYRMDVLVHFHNGRIKDLNIKVTDEDTQREADK” here?
**A.** The protease stability score was 1.57.

**Q.** With “DHKTKMREHAVHEWFDDVITGDERRIREYADPNVRIDIDINGRHEELHGRELFSEILTRFKNVQVEIKHVNHIGDKLHIHFRVHIDGREENVIIIMHKVDGKWVTKRFIIDDA” as the sequence, how does the protease stability score read?
**A.** The protease stability score was 1.05.

**Q.** Which protease stability score does the source give for “DHLDERAERFFLKLVENLLTGNEEIWEELIDPNMRFHAENHSDHGWEVIRRWMERLIERFDHIEIRVHRLRFQGDKVHSDVRVHYEQGDKREEINMHIIIIIINGRIHTIRLIIL” here?
**A.** The protease stability score was 0.308.

**Q.** For “DHLEDDLDHYIRVLIKSWQTGDEELTEKLIDPRVRVEVGDKEFHGRKIFSEIAVHWRIKHHTIEHINTVGDKATIHSHVVLHFDGREITTTTIYFIEKVNGKWLLKSMHIQ”, which protease stability score is on record?
**A.** Its protease stability score is 2.5.

**Q.** With “DHLEDTFRELTRILWEALHTGDWEIRRHYADPNARFQMHINGVELRDHGMDQLSRKYEEWYRRVDHYEVRIKDRRYQGDKMIIHVHIRVKINGKEIHYDVILYIIVVNGRIEEESEEVR” as the sequence, how does the protease stability score read?
**A.** The protease stability score was 1.34.

**Q.** Which protease stability score does the source give for “DHLEEDSERAKELFIKVFKTGDEHIIKEMIDPHARLDWNGQEFHGREEVTRVMHELLEEYGIKHLHVRRFKVVNGRVEIDTELRQGDYRDESIIIILKVNGKWLIHSIEFK” here?
**A.** The protease stability score was 2.12.

**Q.** For “DHLEEIADKMAKDFIHIFLTGDEHLHNRLADPNVRLHVNGRDSHGRENWSRMLTQILREMRVKDIKITSSEVQGEWSVSRTRMNVDIDGKVEEIETEIIILVVNGKLESSTIVID”, which protease stability score is on record?
**A.** Its protease stability score is -0.103.

**Q.** With “DHLEELHETITKLWLEARRTGDEHLFRELMDPHVRIHIGDFEHHGREEALKAFDDIDRHLGVKHHHVDSWHVVNGQMIIDGRLHFDGQTRKVHIDLVIIDGRIEEIREEIR” as the sequence, how does the protease stability score read?
**A.** Its protease stability score is 0.617.

**Q.** With “DHLHEDSKEAFHLWKELSRTGDPKEFADNVDPNVRILINGKRYHGMEHLEHLMMELGIKHSEITRIDTIGDKLHLDGHNRFNGRTVDVHILSNKINGRWVIEEVEVL” as the sequence, how does the protease stability score read?
**A.** The protease stability score was 1.14.

**Q.** For “DHLRELMERVLERYRRALETGNFEELRNLADPHYRVDIDGQELIGMDEYKRHLIKIKNLKIHHVEIKDVKVQGDKAHVDQEDDIEFDGRRMRLRLHYIWLKFNGRWLLHSMEVE”, which protease stability score is on record?
**A.** The protease stability score was 1.85.

**Q.** Which protease stability score does the source give for “DHLRHTVERMVLHLLRLSLTGDEEEWLKLLDPNTKLEVGDKTRHGREDVAQFLLEMRVERVEVSDYRFNNVNGVVRVEIDGHFDFEYDGKREDSRVEIYLLFEKVNGKWHLKFVKVVFK” here?
**A.** Its protease stability score is 1.69.

**Q.** For “DHMDEELKEFLRHFLEYFRTGDFDSLYKLIDPHVKSDINGQEIHGMDLQSFWHRHIRERLGVNHMHIEITEIRYINGRAEVYGKLEVNVNGKRFEHDVHMFNLKVDGKWILESLEIR”, which protease stability score is on record?
**A.** The protease stability score was 2.28.

**Q.** With “DHMEEDVRVAVKIWEETYRTGDEQEINDLVDPNVRVNINGQDYHGRHWLRQIIIEDRRRADHIEIRIDHIEVIGDKVILRGLVIMIQGDKRFDIRMRIFDRKVNGRWHLHNLEQE” as the sequence, how does the protease stability score read?
**A.** Its protease stability score is 2.08.

**Q.** For “DHMERLLKHVARLFIHALHTGDESILTDLLDPNVRVHIHIGDKEIRLHGREHVRHYLEHELTHWRTEFHLTHFDIVGNKFENHTNVIIRIDGVEIRLDRRHEVVLYDGKIEEVIVRVE”, which protease stability score is on record?
**A.** The protease stability score was 2.37.

**Q.** Which protease stability score does the source give for “DHNKEAADHILHLLRQSWRTGDEEIFQRLIDPNVKLQVGDKQFHGREEVTRWIQLYLLRFKGITIHDIEVKEVRTYDGRVEAREIHHNHVNGQDHSLDVHLYIVKVNGQWRLESMHVN” here?
**A.** The protease stability score was 1.77.

**Q.** Which protease stability score does the source give for “DHNKELWERIAEWLIRLQETGNEEELMKNMDPHTRLLVNGVTAHGRDTVTHYYREFLKELGVDVLELKRVHVQGEKVENDGQLHYNGKTHHSRINFFVINGRIHHIELHFE” here?
**A.** The protease stability score was 0.745.

**Q.** With “DHQEEEAKEFTELLMRNLFTGDEDSLQEMLDPHVRIEVDIGDKHRHHHGREEISHFLVRLQHELGVDHIRLSHIEVFNGRAEVHIESYIGNKRSENVFVVTKFNGVWRVQRIIIRVE” as the sequence, how does the protease stability score read?
**A.** The protease stability score was 1.2.

**Q.** For “DHQEESRSKFLNDILRIQRTGDFEKIYENVDPDVRIHIGDKEWHGREQATKVLTEWRVEHFDLKSMHIQGDKVHIHGHMIYNINGQERRSDIEIVLLKFNGRWFIHSMRID”, which protease stability score is on record?
**A.** The protease stability score was 1.67.

**Q.** Which protease stability score does the source give for “DHQEHIIKVSLEILLESARTGDERSLERLFDPNVRIINENEERHGREALEILLKRIDHIHHLNIRDTRIQGDFLITEVHVRINVNGVHIQNDMVLYAWKVNGRWHIRSIEFK” here?
**A.** The protease stability score was 1.39.

**Q.** Which protease stability score does the source give for “DHQEKRTTEANEMFREAIETGDEKTLTRLVDPNVKIIVGDKRYHGREWFLHLMLHEILHLRVRIHTEDYRVVDGRIEFITHLEIEIGDKTVRRETFVFVDKINGRWLYQSFQDG” here?
**A.** The protease stability score was 0.773.

**Q.** Which protease stability score does the source give for “DHQERHLREFAHEVEEAWHTGDWKDMFRLFDPNTRVDFHFENHDLHLHGRESMVRFIRDFLDKFKNIRLQLTSRDRQGDKVHLTEEFHINGRIMVIHVNFDIVNGKWKRLELDFIDT” here?
**A.** Its protease stability score is 1.25.

**Q.** For “DHQRDLLKEARERLLHSIETGDEELWRRLFDPETLLIAENHSSHGREARHDWKKRFDVIDHLEIRTRDVDMIGDKIYVEGKLDYITKYDGVTRNYTNTVHFIATKINGRWVIESVRFE”, which protease stability score is on record?
**A.** The protease stability score was 1.09.

**Q.** For “DHRDEVFEELVRLIIHFLETGDWKSLEELADPNVRVTVFYNGRQDNNIGRKQWAEAWERLLHLLGIKHHHMHRYHIQGDKIHIIMNFVVNGQEFTVHIDITVFNGRMKSSRIHVE”, which protease stability score is on record?
**A.** Its protease stability score is 1.27.

**Q.** For “DHRDRYAEEVAHRLLKLRHTGDEEIYHEFADPNDRLIIWIGDKSIHSHGRSLVVQVLRRLHEHWRLEDMFIHDEKLVGEKSNMDIHVVGNINGKRMETTEKFTVRVINGRLHTLEIHLD”, which protease stability score is on record?
**A.** The protease stability score was 0.474.

**Q.** For “DHREEEQKRLTEEFITALKTGDEERWKELLDPNVKMHINGKDVVGREIAAKDLLDHWKNLGIKHIITHRIELQGEKVRIDTEERFNGRSVKTTMIIIVINGRLESFEFHVH”, which protease stability score is on record?
**A.** The protease stability score was 0.653.

**Q.** For “DHREEESKRYLDDYSRAVTTGDEDRLTELLDPNTKLNYNGQEYHGMEKYKEVLHKILTEIRFESHHVETFRVVGNKLQLDTHIKGHINGKHIRLETHVDIVKINGRWLIDSVRFQ”, which protease stability score is on record?
**A.** The protease stability score was 0.29.

**Q.** For “DHREEHDHEISELMREALLTGDEQLISHLADPNVRFEVFVGDKVIRWVGRESMMEAFERWVREIRIEDLKVKHVDIFNGRVDVVTTLHVEFDGRKHDLETRLIFEVVDGKVKHLQVHHH”, which protease stability score is on record?
**A.** Its protease stability score is 1.36.

**Q.** Which protease stability score does the source give for “DHREELLHRIYELWEMVQTTGDFEKLTDLLDPDVYVNINGRNLIGRELRIRFMREIRMEIKHYKHERFHFQGDKAHIHGRLDREINIGDKHHREDITIDVHLFVIDGVIRSFEIRLI” here?
**A.** Its protease stability score is 1.33.

**Q.** For “DHREHRSHRIAEWILRNLVTGNEDEISKLLDPDARVIINGQEVIGREEINRMLRHVFNEIRIHDIEIRDLEIQGEFAFVDTRLDGEFDGRRIKQKSELRIVVINGRVRELEIRIH”, which protease stability score is on record?
**A.** The protease stability score was 1.52.

**Q.** Which protease stability score does the source give for “DHREKELEKMARIFIHNLVTGDWRSLEKLADPDAKSEVIIGDKHIEHVGRHEVWKMLFEIRWEQVEVHDIRIYNGRVEIDGHMKGDIDGRRIETDTKIRLTIVNGVVQTFHMEIR” here?
**A.** Its protease stability score is 2.23.

**Q.** Which protease stability score does the source give for “DHREKEVHFMAKWIVEIFQTGDEDMWRHLADPDVRLDIVQGEKRDNNVGREVSEKTLKELRHHWGLERVEVRVDHIDHQGDKARVDGTVNINGVHFKTEIVIIVVDGRFKRVKYIIG” here?
**A.** Its protease stability score is 1.39.

**Q.** With “DHRESLRDDMEELLLEVIHTGDWHNYLKLLDPNARLVVGDKEYMGRERVLHWFKEKLDKIPGAKIELEDKREIGNKVELDFDMHVGDKSLRLHIDLRKVNGRWLIEHIEIR” as the sequence, how does the protease stability score read?
**A.** Its protease stability score is 1.47.

**Q.** For “DHTEHDARLVMEIWLRILLTGDWETLEKMLDPHVRLQINIGDKRHTHHGREDFLKRLYDLIRELGVDHWTLDEKRVQGNKTRARVTMYVGDKSYDVEIILVAVNGRIREVTIEIH”, which protease stability score is on record?
**A.** Its protease stability score is 2.08.

**Q.** Which protease stability score does the source give for “DHTHEAVEHLWKLLLHAIATGDFRILSHLLDPNVRIIFNGRTLVGRQSLEILLKRFDHEKIEEVRLRSTRIQGNFVDLDTEIIMVLHYDGKEYRIHTETHVHVVKVDGRWLIEELRID” here?
**A.** Its protease stability score is 2.62.

**Q.** With “DHTKKMAEEALRDFWRDFRTGDEDSLNKMADPNVRILIGDKEVVGRERMVELFREVLKKYKNARVITDIEDLDDQGNWVHSDVRFHLHVGDKTVDIEREIVMRKVNGRWYIETHVVK” as the sequence, how does the protease stability score read?
**A.** Its protease stability score is 0.397.

**Q.** With “DHVDEETEKMTNEITKALLTGDEDRLLELADPHVRVIVHVGDKTIHLVGRELMVEEYRRWVKEAGFDKVHHEKKHSDFVDGRAEVHSKVDVGDKHVEYRIIITKVNGKWVIKSIIIIVR” as the sequence, how does the protease stability score read?
**A.** Its protease stability score is 2.15.
